From patent US20250304690A1 (HANGZHOU VIROMAB BIOTECH, published 2025) come the findings set out here.

Residue numbers refer to the chain shown, from its start.

Sequences and labels used below:
B1: TT3 Ab-2 (antibody, human IgG1, kappa, V domains shown)
VH: QVQLVQSGAEVKKPGASVKVSCKASGYTFTNYYMKWVKQAPGQSLEWIGDLNPNNGDTFYNQKFKGRVTITVDKSASTAYMELNSLRSEDTAVYYCARTGRYEENAMDYWGQGTLVTVSS
VL: DLVMTQSPASLAVSPGQRATITCRASESVDSYGKSFMHWYQQKPGQPPKLLIYRASNLESGVPARFSGSGSRTDFTLTINPVEANDTANYYCQQNNEDPWTFGQGTKLEIKR
notes: also called humanized anti-TT3 monoclonal antibody
B2: TT3 Ab-3 (antibody, human IgG1, kappa)
heavy: not shown
light: DLVMTQSPASLAVSPGQRATITCRASESVDSYGKSFMHWYQLKPGQPPKLLIYRASNLESGVPARFSGSGSRTDFTLTINPVEANDTANYYCQQNNEDPWTFGQGTKLEIKRTVAAPSVFIFPPSDEQLKSGTASVVCLLNNFYPREAKVQWKVDNALQSGNSQESVTEQDSKDSTYSLSSTLTLSKADYEKHKVYACEVTHQGLSSPVTKSFNRGEC
notes: as for B1
B3: TT3 Ab-1 (antibody, human IgG1, kappa, V domains shown)
VH: B1 VH with S44R, I48M, N84S
VL: B1 VL with L2I, M4L
notes: as for B1
B4: Ab-TT3 (antibody, V domains shown)
VH: EVQLEQSGPELVKPGASVKMSCKASGYTFTNYYMKWVKQSHGKSLEWIGDLNPNNGDTFYNQKFKGKATLTVDKSSNTAYMQLNSLTSEDSAVYYCARTGRYEENAMDYWGQGTSVTVSS
VL: ELVMTQSPASLAVSLGQRATISCRASESVDSYGKSFMHWYQLKPGQPPKLLIYRASNLESGVPARFSGSGSRTDFTLTIDPVEADDAATYYCQQNNEDPWTFGGGTKLEIK
notes: also called anti-Strep tag II antibody before humanization

Sequence of TT3 labeling polypeptide on cells (P01732 other isoform, or with tags, fused parts or gaps limits assumed): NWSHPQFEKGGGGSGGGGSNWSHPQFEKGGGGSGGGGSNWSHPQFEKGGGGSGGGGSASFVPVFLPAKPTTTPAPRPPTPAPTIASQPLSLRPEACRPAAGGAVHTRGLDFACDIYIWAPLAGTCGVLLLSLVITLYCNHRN

One test has as its target TT3 labeling polypeptide on cells. Kind of test: flow cytometry on MC38-TT3 cells.
Molecule B1 came in with an EC50 of 2.33 nM.
The same measure, in the same setting: to B2 belongs 0.588 nM; to B3, 1.2 nM.

Another test has the same target. Put plainly: flow cytometry on HCT116-TT3 cells.
B1 registered an EC50 of 0.958 nM.
Still for that read-out and setting: the value for B2 was 0.692 nM.
On to B3, for which a half-maximal response (EC50) required 0.568 nM.

For another test the target is unchanged. Put plainly: flow cytometry on SK-HEP-1-TT3 cells.
As for B1, the EC50 turned out to be 1.53 nM.
B2 displayed an EC50 of 0.738 nM.
Same read-out and setting: the value for B3 was 0.546 nM.

The target of the next test is TT3 antigen (ELISA coating antigen). Kind of test: ELISA, plate-coated TT3 antigen.
Method: The activity of the prepared humanized antibodies was assessed by ELISA as follows: The TT3 antigen was diluted to 0.5 g/mL using a coating solution and added to a 96-well plate at 100 L/well, and the plate was incubated overnight at 4° C. The plate was washed with PBST. Then 200 μL of an antibody blocking solution was added to each well, and blocking was performed at 37° C. for 2 h. The plate was washed with PBST. Different antibodies (initial concentration: 100 nM; serially diluted in a 1:6 ratio) were added at 100 L/well, and the plate was incubated at 37° C. for 2 h. The plate was washed with PBST. An HRP-bound goat anti-human/mouse IgG antibody was added at 100 μL/well, and the plate was incubated at 37° C. for 1 h. The plate was washed with PBST, and TMB was added at 100 L/well. Color development was performed at 37° C. for 10-20 min, and 50 µL of 2 M sulfuric acid was added to each well to stop the reaction. OD readings were taken at a wavelength of 450 nm.
As for B4, a half-maximal effect (EC50) was put at 0.0878 nM. That is a picomolar value.
The same measure, in the same setting: the value for B1 was 0.0105 nM; that for B2 was 0.014 nM.
The molecule B3 displayed an EC50 of 0.0104 nM.
